How the values were obtained:
[1] = biological target: recombinant human osteopontin protein (GST-OPN-his, purified in house) (human) (UniProt P10451); assay: cell-based or functional assay
[2] = substrate: OPN antigen peptide YGLRSKS labeled with biotin (mouse and human (same sequence around the thrombin cleavage site)); assay: direct ELISA, biotinylated peptide on avidin-coated plate, purified IgG serially diluted, 4-parameter fit

Sequence of UniProt P10451 (P10451 17-314): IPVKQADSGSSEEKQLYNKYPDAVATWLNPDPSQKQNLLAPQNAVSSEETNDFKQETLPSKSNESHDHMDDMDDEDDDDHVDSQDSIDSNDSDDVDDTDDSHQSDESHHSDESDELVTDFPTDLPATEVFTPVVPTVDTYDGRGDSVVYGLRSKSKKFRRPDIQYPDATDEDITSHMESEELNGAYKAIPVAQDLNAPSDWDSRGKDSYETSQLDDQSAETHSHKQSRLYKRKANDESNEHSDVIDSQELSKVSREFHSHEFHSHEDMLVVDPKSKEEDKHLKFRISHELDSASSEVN

Binder | % inhibition of thrombin cleavage of human OPN-FL (OPN-R generated, OPN-R specific ELISA) [1] [%] | EC50 [2] [ng/mL]
G7 rabbit monoclonal anti-osteopontin antibody (antibody, V domains shown) VH: QSVKESEGGLFKPTDTLTLTCTVSGFSLSSYGVSWVRQAPGNGLEWIGFIDKYGRTHYASWAKSRSTITRNTNENTVTLKMTSLTAADTATFLCARDDYRPAYGFDIWGPGTLVTVSS VL: QVLTQTASPVSAAVGSTVTINCQASQSVYNNNWLSWFQQKPGQPPKQLIYGASTLPSGVSSRFKGSGSGTQFTLTISDVQCDDAATYYCLGGYHWSTADCNVFGGGTEVVVKG | 60.1 | 93.2
A2 rabbit monoclonal anti-osteopontin antibody (antibody, V domains shown) VH: QSVKESEGGLFKPTDTLTLTCKASGFTVSSYDMGWLRQAPGNGLESIGAIGSDGSEYYVSWARGRTAITRNTNQNTVTLKMTSLTAADTATYFCARDSHYSYGYDYDIWGPGTLVTVSS VL: QVLTQTPSPVSAAVGGTVSISCQSSQSIYSNYLSWYQQKPGQPPKLLIYYASTLASGVPSRFKGSGSGTQFTLTISGVQCDDAATYYCQGTYYVTGWYDAFGGGTEVVVKG | 82 | 2.6
A6 rabbit monoclonal anti-osteopontin antibody (antibody, V domains shown) VH: QSVKESEGGLFKPTDTLTLTCKASGFTVSSYDMGWLRQAPGNGLESIGAIGSDGSEYYVSWARGRTTITRNTNQNTVTLKMTSLTAADTATYFCARDSHYSYGYDYDIWGPGTLVTVSS VL: QVLTQTPSPVSAAVGGTVSISCQSSQSIYSNYLSWYQQKPGQPPKLLIYYASTLASGVPSRFKGSGSGTQFTLTISGVQCDDAATYYCQGTYYVTGWYDAFGGGTEVVVKG | 95.4 | 3.2

Reference: patent US20220324956A1
